{
  "source": "patent US20240342310A1",
  "about": "(UNIVERSITY OF VIRGINIA PATENT FOUNDATION, published 2024)",
  "biological_target": "T1, fibronectin leucine rich transmembrane protein 3 (FLRT3) (UniProt Q9NZU0 29-649, limits assumed)",
  "T1 sequence (looked up)": "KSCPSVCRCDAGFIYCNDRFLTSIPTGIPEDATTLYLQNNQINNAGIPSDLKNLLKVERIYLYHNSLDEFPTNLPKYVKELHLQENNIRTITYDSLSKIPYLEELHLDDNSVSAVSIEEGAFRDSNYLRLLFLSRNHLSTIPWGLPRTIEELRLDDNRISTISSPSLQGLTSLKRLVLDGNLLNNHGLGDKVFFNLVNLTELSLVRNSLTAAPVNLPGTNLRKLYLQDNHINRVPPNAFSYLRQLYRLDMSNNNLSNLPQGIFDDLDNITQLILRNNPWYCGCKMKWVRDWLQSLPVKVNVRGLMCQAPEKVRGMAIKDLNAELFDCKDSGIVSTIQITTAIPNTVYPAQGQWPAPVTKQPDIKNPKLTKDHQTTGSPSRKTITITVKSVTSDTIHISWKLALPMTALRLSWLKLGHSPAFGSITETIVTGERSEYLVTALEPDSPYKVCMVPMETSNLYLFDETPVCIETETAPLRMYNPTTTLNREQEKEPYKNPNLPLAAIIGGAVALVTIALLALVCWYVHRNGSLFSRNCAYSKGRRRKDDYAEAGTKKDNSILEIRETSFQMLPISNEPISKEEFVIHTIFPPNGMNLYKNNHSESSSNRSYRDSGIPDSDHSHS",
  "experiment": "co-immunoprecipitation (data not shown)",
  "data": [
    {"binder": "circCCDC7-180aa (other, All other experiments on the protein used the C-terminally 3xFLAG-tagged form expressed from plenti-ciR-GFP-T2A; also called 180aa protein encoded by circCCDC7(15, 16, 17, 18, 19); CCDC719-15 encoded protein; not shown: 3xFLAG tag inserted just before the stop codon in the expression construct) MQVGNSQTKVKGEDSKNIPLEKETRKSLVSDSGGQRTSDKIQEYPQITAQSGRLIEKSSEKKRSSPAISDLSQILKSQDESAFLESSNEVSVAENQSYKSPSETHDKSLTTVSSSKEVQDSLSVGTLAQKNETVISPFILPPVLTESKKADVSEEQLQKMTEEQTYQAAEKSQESSTSGN", "values": [
      {"measurement": "binding result", "value": "no binding"}
    ]}
  ]
}
